Laboratory results from publication PMC3725505 (Scientific Reports, 2013).
Ends that are not written are not given here.

Target: Kelch domain of human Keap1 (residues 321-609) (human, UniProt Q14145 321-609)
Assay: ITC

Sequence of Kelch domain of human Keap1 (residues 321-609) (Q14145 321-609): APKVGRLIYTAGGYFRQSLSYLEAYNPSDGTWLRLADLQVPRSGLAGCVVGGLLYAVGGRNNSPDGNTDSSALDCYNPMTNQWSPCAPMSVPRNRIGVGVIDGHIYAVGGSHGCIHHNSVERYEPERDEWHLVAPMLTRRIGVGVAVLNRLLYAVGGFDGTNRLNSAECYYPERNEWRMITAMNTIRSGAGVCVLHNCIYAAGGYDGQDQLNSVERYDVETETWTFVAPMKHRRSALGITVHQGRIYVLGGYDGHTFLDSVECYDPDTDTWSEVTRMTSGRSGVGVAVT

dH: -10.8 ± 0.14 kcal/mol
Binder: SLEEPHSPETGEKVVAGEVN (also: phosphoserine (S286), position in chain not placed) [WTX pS286 peptide (20-mer, S286 phosphorylated)]
